Target: GST-BLM RQC loopΔ10 (human) (UniProt P54132)
Assay: EMSA
Conditions: 5 uM protein, FP: 10 mM Tris-HCl pH 7.5, 25 mM NaCl, 1 mM DTT, 100 pM DNA, 25 C, EMSA: 10 mM Tris-HCl pH 8.0, 2 mM DTT, 1 mM EDTA, 20% glycerol, 0.2 uM DNA, 4 C, 30 min

Chain of GST-BLM RQC loopΔ10 (human) (P54132 1068-1209, stated change not applied): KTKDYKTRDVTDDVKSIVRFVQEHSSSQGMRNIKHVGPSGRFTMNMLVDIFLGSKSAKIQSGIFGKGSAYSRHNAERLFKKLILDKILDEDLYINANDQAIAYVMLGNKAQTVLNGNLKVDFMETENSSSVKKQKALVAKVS

For “CTAGAACAGCATGTCCTAGCAAGCCAGAATTC / GAATTCTGGCTTGCTAGGACATCTTTGCCCAC / GTGGGCAAAGATGTCCTAGCAATGTAATCGTC / GACGATTACATTGCTAGGACATGCTGTTCTAG [Holliday junction (HJ)]”, which binding signal (% loss of binding vs wild type) is on record?
The binding signal (% loss of binding vs wild type) was 50.

From PMC6505963
